The target in this test is T1, His-SUMO-Met4-Strep-tagII-HA (S. cerevisiae, UniProt P32389 1-672).
T1 construct: Met4, transcription factor of the MET regulon, Saccharomyces cerevisiae; MET4 ORF cloned into the pET His6 Sumo vector; fractions with pure, full-length Met4 were pooled; No cleavage of His-SUMO is described; also called recombinant Met4; bacterially purified Met4; source: E. coli BL21, purified (Ni-NTA, Strep-Tactin Sepharose); not shown: HA, C-terminal, kept
T1 sequence (looked up): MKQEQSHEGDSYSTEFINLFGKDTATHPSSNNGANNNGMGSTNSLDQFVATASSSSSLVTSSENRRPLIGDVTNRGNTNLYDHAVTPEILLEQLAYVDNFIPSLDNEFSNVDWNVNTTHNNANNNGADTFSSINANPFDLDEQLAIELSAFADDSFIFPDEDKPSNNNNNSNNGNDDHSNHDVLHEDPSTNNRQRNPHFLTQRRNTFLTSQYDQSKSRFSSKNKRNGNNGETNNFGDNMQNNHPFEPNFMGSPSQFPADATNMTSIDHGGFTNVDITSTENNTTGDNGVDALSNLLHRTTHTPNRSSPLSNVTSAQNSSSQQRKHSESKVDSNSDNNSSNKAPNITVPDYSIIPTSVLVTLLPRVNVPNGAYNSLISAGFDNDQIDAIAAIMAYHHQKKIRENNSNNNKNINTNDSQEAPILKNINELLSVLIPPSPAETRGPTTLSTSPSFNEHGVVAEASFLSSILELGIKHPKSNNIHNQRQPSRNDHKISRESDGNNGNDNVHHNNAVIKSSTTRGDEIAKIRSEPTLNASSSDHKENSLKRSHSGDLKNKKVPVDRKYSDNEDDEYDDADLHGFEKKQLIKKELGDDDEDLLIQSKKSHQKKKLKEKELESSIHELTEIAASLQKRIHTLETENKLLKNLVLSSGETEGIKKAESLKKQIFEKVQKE
As to the kind of experiment: pull-down; Met30-Flag complex isolated on anti-FLAG M2 protein G dynabeads from lysate of rich or -sulfur cells with 1 mM DTT, 1 mM diamide or nothing added; beads washed, then incubated with 1 ug purified recombinant Met4 in 1 mL IP buffer (50 mM Tris pH 7.5, 150 mM NaCl, 1% NP-40) with or without 1 mM DTT, 2 h, 4°C; Western blots for Met4 and Met30; mutants from cells grown in rich media. The conditions noted are these: both partners purified. Background: In western blotting, separated proteins are transferred to a membrane and probed.

B1: Met30-Flag (natural protein, S. cerevisiae, UniProt P39014 1-640, looked up)
chain: MRRERQRMMSFEDKDKDDLDNSNSNNSSEMTDTAMMPPLKRLLITGSSDDLAQGSSGKKKMTMATRSPSSSPDLATNDSGTRVQPLPEYNFTKFCYRHNPDIQFSPTHTACYKQDLKRTQEINANIAKLPLQEQSDIHHIISKYSNSNDKIRKLILDGILSTSCFPQLSYISSLVTHMIKIDFISILPQELSLKILSYLDCQSLCNATRVCRKWQKLADDDRVWYHMCEQHIDRKCPNCGWGLPLLHMKRARIQQNSTGSSSNADIQTQTTRPWKVIYRERFKVESNWRKGHCRIQEFKGHMDGVLTLQFNYRLLFTGSYDSTIGIWDLFTGKLIRRLSGHSDGVKTLYFDDRKLITGSLDKTIRVWNYITGECISTYRGHSDSVLSVDSYQKVIVSGSADKTVKVWHVESRTCYTLRGHTEWVNCVKLHPKSFSCFSCSDDTTIRMWDIRTNSCLKVFRGHVGQVQKIIPLTIKDVENLATDNTSDGSSPQDDPTMTDGADESDTPSNEQETVLDENIPYPTHLLSCGLDNTIKLWDVKTGKCIRTQFGHVEGVWDIAADNFRIISGSHDGSIKVWDLQSGKCMHTFNGRRLQRETQHTQTQSLGDKVAPIACVCIGDSECFSGDEFGCVKMYKFDLND
notes: Met30, F-box protein of the SCF^Met30 E3 ubiquitin ligase, Saccharomyces cerevisiae (CEN.PK background); endogenous locus tagged at the C-terminus; 23 cysteines; Isolated from yeast as a Met30-Flag complex, so other SCF components may be on the beads; Cysteines are reduced or oxidised depending on the IP condition (+DTT, -DTT, +diamide); also called SCF^Met30-Flag; Flag-tagged Met30; source: S. …
As for B1, the binding result is recorded as “binds”.

B2: Met30 C414S (Flag-tagged) (natural protein, S. cerevisiae, UniProt P39014 1-640, looked up)
chain: MRRERQRMMSFEDKDKDDLDNSNSNNSSEMTDTAMMPPLKRLLITGSSDDLAQGSSGKKKMTMATRSPSSSPDLATNDSGTRVQPLPEYNFTKFCYRHNPDIQFSPTHTACYKQDLKRTQEINANIAKLPLQEQSDIHHIISKYSNSNDKIRKLILDGILSTSCFPQLSYISSLVTHMIKIDFISILPQELSLKILSYLDCQSLCNATRVCRKWQKLADDDRVWYHMCEQHIDRKCPNCGWGLPLLHMKRARIQQNSTGSSSNADIQTQTTRPWKVIYRERFKVESNWRKGHCRIQEFKGHMDGVLTLQFNYRLLFTGSYDSTIGIWDLFTGKLIRRLSGHSDGVKTLYFDDRKLITGSLDKTIRVWNYITGECISTYRGHSDSVLSVDSYQKVIVSGSADKTVKVWHVESRTSYTLRGHTEWVNCVKLHPKSFSCFSCSDDTTIRMWDIRTNSCLKVFRGHVGQVQKIIPLTIKDVENLATDNTSDGSSPQDDPTMTDGADESDTPSNEQETVLDENIPYPTHLLSCGLDNTIKLWDVKTGKCIRTQFGHVEGVWDIAADNFRIISGSHDGSIKVWDLQSGKCMHTFNGRRLQRETQHTQTQSLGDKVAPIACVCIGDSECFSGDEFGCVKMYKFDLND
notes: Met30, F-box protein, Saccharomyces cerevisiae (CEN.PK background), with the point mutation C414S; whole gene locus with tag transformed into yeast; source: S. cerevisiae CEN.PK mutant strain grown in rich media, immunopurified on anti-FLAG M2 magnetic beads; not shown: Flag, C-terminal, kept
As to B2, the binding result is reported as “binds”.

B3: Met30 C614/616/622/630S (Flag-tagged) (natural protein, S. cerevisiae, UniProt P39014 1-640, looked up)
chain: MRRERQRMMSFEDKDKDDLDNSNSNNSSEMTDTAMMPPLKRLLITGSSDDLAQGSSGKKKMTMATRSPSSSPDLATNDSGTRVQPLPEYNFTKFCYRHNPDIQFSPTHTACYKQDLKRTQEINANIAKLPLQEQSDIHHIISKYSNSNDKIRKLILDGILSTSCFPQLSYISSLVTHMIKIDFISILPQELSLKILSYLDCQSLCNATRVCRKWQKLADDDRVWYHMCEQHIDRKCPNCGWGLPLLHMKRARIQQNSTGSSSNADIQTQTTRPWKVIYRERFKVESNWRKGHCRIQEFKGHMDGVLTLQFNYRLLFTGSYDSTIGIWDLFTGKLIRRLSGHSDGVKTLYFDDRKLITGSLDKTIRVWNYITGECISTYRGHSDSVLSVDSYQKVIVSGSADKTVKVWHVESRTCYTLRGHTEWVNCVKLHPKSFSCFSCSDDTTIRMWDIRTNSCLKVFRGHVGQVQKIIPLTIKDVENLATDNTSDGSSPQDDPTMTDGADESDTPSNEQETVLDENIPYPTHLLSCGLDNTIKLWDVKTGKCIRTQFGHVEGVWDIAADNFRIISGSHDGSIKVWDLQSGKCMHTFNGRRLQRETQHTQTQSLGDKVAPIASVSIGDSESFSGDEFGSVKMYKFDLND
notes: Met30, F-box protein, Saccharomyces cerevisiae (CEN.PK background), with four cysteine to serine mutations in the WD-40 repeat region; whole gene locus with tag transformed into yeast; source: S. cerevisiae CEN.PK mutant strain grown in rich media, immunopurified on anti-FLAG M2 magnetic beads; not shown: Flag, C-terminal, kept
For B3, the binding result is given as “binds”.

(Values after paper doi:10.1101/2021.01.06.425657, “The SCF^Met30 ubiquitin ligase senses cellular redox state to regulate the transcription of sulfur metabolism gene” (bioRxiv, 2021).)
